Experiment [1] has as its target T1, full-length isoform 2 ECD of cynomolgus monkey CD96 (His-tagged) (cynomolgus monkey).
T1 construct: also called His-tagged isoform 2 of cynomolgus monkey CD96; cyno CD96 extracellular domain isoform 2
T1 chain: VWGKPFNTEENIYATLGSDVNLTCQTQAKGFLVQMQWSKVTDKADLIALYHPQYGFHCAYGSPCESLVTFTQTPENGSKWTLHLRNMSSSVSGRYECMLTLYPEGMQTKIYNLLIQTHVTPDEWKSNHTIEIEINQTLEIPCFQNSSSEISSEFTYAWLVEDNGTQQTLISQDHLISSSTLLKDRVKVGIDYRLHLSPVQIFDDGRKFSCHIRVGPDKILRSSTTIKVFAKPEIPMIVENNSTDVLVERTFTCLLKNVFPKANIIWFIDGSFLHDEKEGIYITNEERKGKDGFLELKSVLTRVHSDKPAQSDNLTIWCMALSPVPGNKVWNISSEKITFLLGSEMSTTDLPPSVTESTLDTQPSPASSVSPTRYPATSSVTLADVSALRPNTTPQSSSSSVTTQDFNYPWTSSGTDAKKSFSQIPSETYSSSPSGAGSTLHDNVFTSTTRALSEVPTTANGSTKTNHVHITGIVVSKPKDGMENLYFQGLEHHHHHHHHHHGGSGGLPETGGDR
The experiment is described as follows: SPR Biacore T200, Protein A capture, 1:1 model, experiment #2. The protocol:
(§1) Briefly, surface plasmon resonance experiments were performed using a Biacore T200 instrument, and the association rate (kₐ), dissociation rate (kd), and dissociation constant (KD) were calculated from each experiment using a 1:1 binding model with Biacore T200 Evaluation Software.
Multispecific molecules were captured using a 30-sec injection at a flow rate of 10 μl/min to reach about 350 resonance units (RUs). […] The sensor chip was regenerated between cycles with two 30-sec injections of 10 mM glycine, pH 1.5. Sensorgrams were evaluated and fit to a simple Langmuir 1:1 interaction model using the global data analysis option of BIAevaluation 3.0 software. Data quality was verified by visually inspecting deviations and curve fitting, and by evaluating the parameters of Rₘₐₓ, Chi2, and Tc.
(Surface plasmon resonance follows binding to a sensor surface in real time, without labels.)

The target of experiment [2] is T2, full-length ECD of human TIGIT (His-tagged) (human).
T2 construct: also called His-tagged human TIGIT; human TIGIT extracellular domain
T2 chain: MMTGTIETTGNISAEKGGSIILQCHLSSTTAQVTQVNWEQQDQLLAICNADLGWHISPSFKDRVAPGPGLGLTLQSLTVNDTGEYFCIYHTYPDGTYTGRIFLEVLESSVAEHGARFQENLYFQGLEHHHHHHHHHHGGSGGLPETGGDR
The experiment is described as follows: SPR Biacore T200, Protein A capture, 1:1 model, experiment #1. The protocol: as §1
(§2) Antibodies were captured using a 30-sec injection at a flow rate of 10 μl/min to reach about 500 resonance units (RUs). […] The sensor chip was regenerated between cycles with two 30-sec injections of 10 mM glycine, pH 1.5. Sensorgrams were evaluated and fit to a simple Langmuir 1:1 interaction model using the global data analysis option of BIAevaluation 3.0 software. Data quality was verified by visually inspecting deviations and curve fitting, and by evaluating the parameters of Rₘₐₓ, Chi2, and Tc.

Experiment [3] concerns the target T3, full-length ECD of cynomolgus monkey TIGIT (His-tagged) (cynomolgus monkey).
T3 construct: also called His-tagged cynomolgus monkey TIGIT; cyno TIGIT extracellular domain
The experiment is described as above. The protocol:
as §1, §2

Experiment [4] addresses T4, wild type full-length human TIGIT expressed on cells (human, UniProt Q495A1 22-244).
T4 construct: whole, on cells; also called human TIGIT-CHO; human TIGIT CHO cells
T4 sequence (looked up): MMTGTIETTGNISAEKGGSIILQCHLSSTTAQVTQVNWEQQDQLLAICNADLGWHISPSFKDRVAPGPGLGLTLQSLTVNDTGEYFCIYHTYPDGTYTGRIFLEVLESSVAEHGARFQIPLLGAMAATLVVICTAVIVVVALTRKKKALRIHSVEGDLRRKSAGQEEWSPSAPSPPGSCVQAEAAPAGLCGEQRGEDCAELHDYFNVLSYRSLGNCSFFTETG
The experiment is described as follows: flow cytometry, human TIGIT CHO cells, geomean of 2 experiments. The protocol: The ability of anti-TIGIT antibodies to bind to wild type human TIGIT expressed on the surface of CHO cells was assessed. Briefly, CHO cells were transfected with a vector encoding wild type human TIGIT (human TIGIT-CHO), and clones stably expressing TIGIT were selected.
For the antibody binding assay, a frozen aliquot of human TIGIT-CHO cells was thawed at 37° C. and then transferred to a tube containing DPBS supplemented with 0.5% Bovine Serum Albumin and 0.05% Sodium Azide (FACS Buffer). Cells were centrifuged at 300 g for five minutes. The supernatant was discarded, and cells resuspended in FACS buffer were seeded in a 96-well U-bottom tissue culture plate at a density of […] cells per well in 50 μL. In a separate microplate, a 2× concentrated intermediate stock of each antibody was prepared. Antibodies were serially diluted 1-to-4 in FACS buffer. A total of 11 working dilutions ranging from 60 μg/mL to 0.000057 μg/mL were prepared. […] After a 30-minute incubation on ice, the cells were washed twice with cold FACS Buffer, and the cells were analyzed by flow cytometry (BD LSR Fortessa Flow Cytometer). The data were analyzed using the FlowJo software by sequentially gating the FSC-A vs. SSC-A, and SSC-H vs. SSC-A. Mean fluorescence intensity (MFI) values for PE were calculated, and the data were plotted by GraphPad Prism software.

B1: anti-TIGIT×CD96 multispecific molecule BA123 (bispecific antibody, human IgG1, kappa, lambda)
heavy 1: QVQLVQSGAEVKKPGASVKVSCKASGYTFTSYGISWVRQAPGQGLEWMGWISAYNANTNYAQKLQGRVTMTTDTSTSTAYMELRSLRSDDTAVYYCARSAGVLGGMDVWGRGTLVTVSSASTKGPSVFPLAPSSKSTSGGTAALGCLVKDYFPEPVTVSWNSGALTSGVHTFPAVLQSSGLYSLSSVVTVPSSSLGTQTYICNVNHKPSNTKVDKRVEPKSCDKTHTCPPCPAPELLGGPDVFLFPPKPKDTLMISRTPEVTCVVVDVSHEDPEVKFNWYVDGVEVHNAKTKPREEQYNSTYRVVSVLTVLHQDWLNGKEYKCKVSNKALPAPIEKTISKAKGQPREPQVYTLPPSREEMTKNQVSLSCAVKGFYPSDIAVEWESNGQPENNYKTTPPVLDSDGSFFLVSKLTVDKSRWQQGNVFSCSVMHEALHNHYTQKSLSLSPG
light 1: not shown
heavy 2: EVQLVQSGAEVKKPGSSVKVSCKASGYTFASYGISWVRQAPGQGLEWMGGITPFFNRVDVAEKFQGRVTITADKSTSTAYIELSSLRSEDTAVYYCARDLRRGGVGDAFDIWGRGTLVTVSSASTKGPSVFPLAPSSKSTSGGTAALGCLVKDYFPEPVTVSWNSGALTSGVHTFPAVLQSSGLYSLSSVVTVPSSSLGTQTYICNVNHKPSNTKVDKRVEPKSCDKTHTCPPCPAPELLGGPDVFLFPPKPKDTLMISRTPEVTCVVVDVSHEDPEVKFNWYVDGVEVHNAKTKPREEQYNSTYRVVSVLTVLHQDWLNGKEYKCKVSNKALPLPEEKTISKAKGQPREPQVYTLPPSREEMTKNQVSLWCLVKGFYPSDIAVEWESNGQPENNYKTTPPVLDSDGSFFLYSKLTVDKSRWQQGNVFSCSVMHEALHNHYTQKSLSLSPG
light 2: QSALTQPRSVSGSPGQSVTISCTGTSPDVGSHAYRSWYQQHPGKAPKLMIYEVSYRPSGVSNRFSGSKSGNTASLTISGLQAEDEADYYCSSYPPSSATVFGAGTKLTVLGQPKAAPSVTLFPPSSEELQANKATLVCLISDFYPGAVTVAWKADSSPVKAGVETTTPSKQSNNKYAASSYLSLTPEQWKSHRSYSCQVTHEGSTVEKTVAPTEC
notes: copies: 1 + 1 + 1 + 1
As a reminder, the Kd is the constant that tells how readily two partners part at equilibrium. As a reminder, the koff is the rate constant with which the complex falls apart. A word on the kon: it is the second-order rate constant of association. In experiment [1], B1 yielded an equilibrium dissociation constant (Kd) of 42.7 nM, a koff of 0.00324 s⁻¹ and a kon of 75900 M⁻¹ s⁻¹.

B2: anti-TIGIT monospecific antibody BA148 (antibody, human IgG1, lambda)
heavy: EVQLVQSGAEVKKPGSSVKVSCKASGYTFASYGISWVRQAPGQGLEWMGGITPFFNRVDVAEKFQGRVTITADKSTSTAYIELSSLRSEDTAVYYCARDLRRGGVGDAFDIWGRGTLVTVSSASTKGPSVFPLAPSSKSTSGGTAALGCLVKDYFPEPVTVSWNSGALTSGVHTFPAVLQSSGLYSLSSVVTVPSSSLGTQTYICNVNHKPSNTKVDKRVEPKSCDKTHTCPPCPAPELLGGPDVFLFPPKPKDTLMISRTPEVTCVVVDVSHEDPEVKFNWYVDGVEVHNAKTKPREEQYNSTYRVVSVLTVLHQDWLNGKEYKCKVSNKALPLPEEKTISKAKGQPREPQVYTLPPSREEMTKNQVSLTCLVKGFYPSDIAVEWESNGQPENNYKTTPPVLDSDGSFFLYSKLTVDKSRWQQGNVFSCSVMHEALHNHYTQKSLSLSPGK
light: B1 light 2
notes: IgG1; also called anti-TIGIT IgG1 antibody BA148
In general, EC50 refers to the midpoint of the concentration-response curve. In experiment [2], B2 returned a Kd of 0.535 nM, a koff of 0.000413 s⁻¹ and an association rate constant (kon) of 773000 M⁻¹ s⁻¹. In experiment [3], this molecule showed a Kd of 3.8 nM, a koff of 0.00127 s⁻¹ and an on-rate constant (kon) of 334000 M⁻¹ s⁻¹. Moreover, in experiment [4], the midpoint of the response, the EC50, lay at 8.2 ng/mL.

The values above are taken from US20240141039A1 (AGENUS, published 2024).
